Measurements as given in the RNAGym collection of RNA variant scans (doi:10.7554/elife.80360).

B1: Hammerhead Ribozyme (parent)
chain: ACCGGAUGUGCUUUCCGGUCUGAUGAGUCCGUGAGGACGAAACAG

Variants of: B1
Test: self-cleavage, relative activity (ratio to wild type); higher = more cleavage; co-transcriptional

Row | Variant | self-cleavage
1 | C3G G8A | 0.406
2 | C3G G8U | 0.656
3 | C3U C43A | 0.344
4 | C3U C43U | 0.492
5 | C3U C43G | 0.385
6 | C3A C16U | 0.557
7 | C3A C16A | 0.596
8 | C3A C16G | 0.438
9 | C3U G8A | 1.25
10 | C3U G8U | 0.945
11 | C3U G8C | 0.936
12 | C3A U24A | 0.811
13 | C3A U24C | 0.94
14 | C3A U24G | 0.574
15 | C3G A42G | 0.256
16 | C3G A42C | 0.31
17 | C3G A42U | 0.23
18 | C3G G17C | 0.617
19 | C3G G17U | 0.583
20 | C3G G17A | 0.511
21 | C3A U13A | 1.33
22 | C3A U13G | 0.847
23 | C3A U13C | 0.963
24 | C3U A26G | 0.366

Row | Variant | self-cleavage
25 | C3U A26U | 0.624
26 | C3U A26C | 0.394
27 | C3A G31C | 0.791
28 | C3A G31U | 1.05
29 | C3A G31A | 0.912
30 | C3A U9C | 0.756
31 | C3A U9G | 0.327
32 | C3A U9A | 0.476
33 | C3A G5U | 0.28
34 | C3A G5C | 0.319
35 | C3A G5A | 0.319
36 | C3A G27U | 0.305
37 | C3A G27A | 0.365
38 | C3A G27C | 0.422
39 | C3A G18U | 0.324
40 | C3A G18C | 0.365
41 | C3A G18A | 0.344
42 | C3G U12A | 0.352
43 | C3G U12C | 0.394
44 | C3G U12G | 0.356
45 | C3A C43G | 0.261
46 | C3A C43U | 0.378
47 | C3A C43A | 0.28
48 | C3G A40G | 0.341

Row | Variant | self-cleavage
49 | C3G A40U | 0.309
50 | C3G A40C | 0.284
51 | C3U A6U | 0.609
52 | C3U A6C | 0.437
53 | C3U A6G | 0.747
54 | C3A C38U | 0.515
55 | C3A C38G | 0.329
56 | C3A C38A | 0.315
57 | C3G G39U | 0.284
58 | C3G G39A | 0.31
59 | C3G G39C | 0.288
60 | C3G A37C | 0.293
61 | C3G A37U | 0.327
62 | C3G A37G | 0.334
63 | C3G U19A | 0.265
64 | C3G U19C | 0.31
65 | C3G U19G | 0.306
66 | C3A U14A | 0.422
67 | C3A U14C | 0.436
68 | C3A U14G | 0.672
69 | C3A G45C | 0.355
70 | C3A G45U | 0.448
71 | C3A G45A | 0.358
72 | C3U A44U | 0.592

Row | Variant | self-cleavage
73 | C3U A44G | 1.49
74 | C3U A44C | 0.522
75 | C3A G8U | 0.902
76 | C3A G8C | 0.467
77 | C3A G8A | 0.629
78 | C3A C15G | 0.346
79 | C3A C15A | 0.312
80 | C3A C15U | 0.518
81 | C3G A6G | 0.294
82 | C3G A6U | 0.322
83 | C3G A6C | 0.361
84 | C3A G4C | 0.216
85 | C3A G4U | 0.282
86 | C3A G4A | 0.293
87 | C3U G4A | 0.387
88 | C3U G4U | 0.302
89 | C3U G4C | 0.3
90 | C3A C11G | 0.562
91 | C3A C11A | 0.754
92 | C3A C11U | 0.358
93 | C3G A44C | 0.374
94 | C3G A44G | 0.667
95 | C3G A44U | 0.32
96 | C3U G10A | 1.47

Row | Variant | self-cleavage
97 | C3U G10C | 1.05
98 | C3U G10U | 1.22
99 | C3G G4C | 0.289
100 | C3G G4A | 0.283
101 | C3G G4U | 0.322
102 | C3U G17U | 0.866
103 | C3U G17C | 0.675
104 | C3U G17A | 1.03
105 | C3A G39A | 0.277
106 | C3A G39U | 0.235
107 | C3A G39C | 0.282
108 | C3G C38U | 0.37
109 | C3G C38G | 0.279
110 | C3G C38A | 0.279
111 | C3A U21G | 0.358
112 | C3A U21C | 0.376
113 | C3A U21A | 0.37
114 | C3U C38G | 0.745
115 | C3U C38U | 0.999
116 | C3U C38A | 0.577
117 | C3U U7C | 0.743
118 | C3U U7A | 1.26
119 | C3U U7G | 1.25
120 | C3U A34C | 0.851

Row | Variant | self-cleavage
121 | C3U A34G | 0.91
122 | C3U A34U | 0.947
123 | C3U G25A | 0.368
124 | C3U G25C | 0.315
125 | C3U G25U | 0.345
126 | C3G A34U | 0.389
127 | C3G A34C | 0.422
128 | C3G A34G | 0.409
129 | C3G A23U | 0.242
130 | C3G A23C | 0.328
131 | C3G A23G | 0.257
132 | C3G A41G | 0.274
133 | C3G A41C | 0.299
134 | C3G A41U | 0.3
135 | C3A A44C | 0.418
136 | C3A A44G | 1.01
137 | C3A A44U | 0.392
138 | C3G U7G | 0.625
139 | C3G U7C | 0.462
140 | C3G U7A | 0.471
141 | C3U G39A | 0.309
142 | C3U G39U | 0.343
143 | C3U G39C | 0.462
144 | C3G G27C | 0.284

Row | Variant | self-cleavage
145 | C3G G27A | 0.317
146 | C3G G27U | 0.265
147 | C3G G35A | 0.292
148 | C3G G35C | 0.248
149 | C3G G35U | 0.32
150 | C3G U28A | 0.376
151 | C3G U28C | 0.447
152 | C3G U28G | 0.356
153 | C3G U24C | 0.477
154 | C3G U24A | 0.511
155 | C3G U24G | 0.44
156 | C3U A41U | 0.378
157 | C3U A41C | 0.404
158 | C3U A41G | 0.354
159 | C3U A23U | 0.347
160 | C3U A23G | 0.331
161 | C3U A23C | 0.491
162 | C3U G35U | 0.761
163 | C3U G35C | 0.625
164 | C3U G35A | 0.487
165 | C3G C29G | 0.345
166 | C3G C29A | 0.324
167 | C3G C29U | 0.418
